Data reported in paper PMC11215335 (The Journal of Biological Chemistry, 2024).

Legend:
Assay in all cases: ELISA; polyreactivity assay, second experiment (Fig. 3D): antigen coated at constant concentration (proteins 5 ug/ml, bicarbonate buffer pH 9.6); mAb, Fab or scFv serially diluted two-fold from 34 nM Fv; 1 h at 37 C; alkaline phosphatase-conjugated secondary antibody; 'saturating Ag conditions'
Conditions in all cases: both partners purified
thyroglobulin = molecular target: T1, thyroglobulin (Bos taurus (assumed from catalogue item …, UniProt P01267))
T1 construct: thyroglobulin, Sigma T1001; As I recall, this catalogue item is thyroglobulin from bovine thyroid; source: bought: Sigma (T1001)
T1 sequence (P01267 20-2769): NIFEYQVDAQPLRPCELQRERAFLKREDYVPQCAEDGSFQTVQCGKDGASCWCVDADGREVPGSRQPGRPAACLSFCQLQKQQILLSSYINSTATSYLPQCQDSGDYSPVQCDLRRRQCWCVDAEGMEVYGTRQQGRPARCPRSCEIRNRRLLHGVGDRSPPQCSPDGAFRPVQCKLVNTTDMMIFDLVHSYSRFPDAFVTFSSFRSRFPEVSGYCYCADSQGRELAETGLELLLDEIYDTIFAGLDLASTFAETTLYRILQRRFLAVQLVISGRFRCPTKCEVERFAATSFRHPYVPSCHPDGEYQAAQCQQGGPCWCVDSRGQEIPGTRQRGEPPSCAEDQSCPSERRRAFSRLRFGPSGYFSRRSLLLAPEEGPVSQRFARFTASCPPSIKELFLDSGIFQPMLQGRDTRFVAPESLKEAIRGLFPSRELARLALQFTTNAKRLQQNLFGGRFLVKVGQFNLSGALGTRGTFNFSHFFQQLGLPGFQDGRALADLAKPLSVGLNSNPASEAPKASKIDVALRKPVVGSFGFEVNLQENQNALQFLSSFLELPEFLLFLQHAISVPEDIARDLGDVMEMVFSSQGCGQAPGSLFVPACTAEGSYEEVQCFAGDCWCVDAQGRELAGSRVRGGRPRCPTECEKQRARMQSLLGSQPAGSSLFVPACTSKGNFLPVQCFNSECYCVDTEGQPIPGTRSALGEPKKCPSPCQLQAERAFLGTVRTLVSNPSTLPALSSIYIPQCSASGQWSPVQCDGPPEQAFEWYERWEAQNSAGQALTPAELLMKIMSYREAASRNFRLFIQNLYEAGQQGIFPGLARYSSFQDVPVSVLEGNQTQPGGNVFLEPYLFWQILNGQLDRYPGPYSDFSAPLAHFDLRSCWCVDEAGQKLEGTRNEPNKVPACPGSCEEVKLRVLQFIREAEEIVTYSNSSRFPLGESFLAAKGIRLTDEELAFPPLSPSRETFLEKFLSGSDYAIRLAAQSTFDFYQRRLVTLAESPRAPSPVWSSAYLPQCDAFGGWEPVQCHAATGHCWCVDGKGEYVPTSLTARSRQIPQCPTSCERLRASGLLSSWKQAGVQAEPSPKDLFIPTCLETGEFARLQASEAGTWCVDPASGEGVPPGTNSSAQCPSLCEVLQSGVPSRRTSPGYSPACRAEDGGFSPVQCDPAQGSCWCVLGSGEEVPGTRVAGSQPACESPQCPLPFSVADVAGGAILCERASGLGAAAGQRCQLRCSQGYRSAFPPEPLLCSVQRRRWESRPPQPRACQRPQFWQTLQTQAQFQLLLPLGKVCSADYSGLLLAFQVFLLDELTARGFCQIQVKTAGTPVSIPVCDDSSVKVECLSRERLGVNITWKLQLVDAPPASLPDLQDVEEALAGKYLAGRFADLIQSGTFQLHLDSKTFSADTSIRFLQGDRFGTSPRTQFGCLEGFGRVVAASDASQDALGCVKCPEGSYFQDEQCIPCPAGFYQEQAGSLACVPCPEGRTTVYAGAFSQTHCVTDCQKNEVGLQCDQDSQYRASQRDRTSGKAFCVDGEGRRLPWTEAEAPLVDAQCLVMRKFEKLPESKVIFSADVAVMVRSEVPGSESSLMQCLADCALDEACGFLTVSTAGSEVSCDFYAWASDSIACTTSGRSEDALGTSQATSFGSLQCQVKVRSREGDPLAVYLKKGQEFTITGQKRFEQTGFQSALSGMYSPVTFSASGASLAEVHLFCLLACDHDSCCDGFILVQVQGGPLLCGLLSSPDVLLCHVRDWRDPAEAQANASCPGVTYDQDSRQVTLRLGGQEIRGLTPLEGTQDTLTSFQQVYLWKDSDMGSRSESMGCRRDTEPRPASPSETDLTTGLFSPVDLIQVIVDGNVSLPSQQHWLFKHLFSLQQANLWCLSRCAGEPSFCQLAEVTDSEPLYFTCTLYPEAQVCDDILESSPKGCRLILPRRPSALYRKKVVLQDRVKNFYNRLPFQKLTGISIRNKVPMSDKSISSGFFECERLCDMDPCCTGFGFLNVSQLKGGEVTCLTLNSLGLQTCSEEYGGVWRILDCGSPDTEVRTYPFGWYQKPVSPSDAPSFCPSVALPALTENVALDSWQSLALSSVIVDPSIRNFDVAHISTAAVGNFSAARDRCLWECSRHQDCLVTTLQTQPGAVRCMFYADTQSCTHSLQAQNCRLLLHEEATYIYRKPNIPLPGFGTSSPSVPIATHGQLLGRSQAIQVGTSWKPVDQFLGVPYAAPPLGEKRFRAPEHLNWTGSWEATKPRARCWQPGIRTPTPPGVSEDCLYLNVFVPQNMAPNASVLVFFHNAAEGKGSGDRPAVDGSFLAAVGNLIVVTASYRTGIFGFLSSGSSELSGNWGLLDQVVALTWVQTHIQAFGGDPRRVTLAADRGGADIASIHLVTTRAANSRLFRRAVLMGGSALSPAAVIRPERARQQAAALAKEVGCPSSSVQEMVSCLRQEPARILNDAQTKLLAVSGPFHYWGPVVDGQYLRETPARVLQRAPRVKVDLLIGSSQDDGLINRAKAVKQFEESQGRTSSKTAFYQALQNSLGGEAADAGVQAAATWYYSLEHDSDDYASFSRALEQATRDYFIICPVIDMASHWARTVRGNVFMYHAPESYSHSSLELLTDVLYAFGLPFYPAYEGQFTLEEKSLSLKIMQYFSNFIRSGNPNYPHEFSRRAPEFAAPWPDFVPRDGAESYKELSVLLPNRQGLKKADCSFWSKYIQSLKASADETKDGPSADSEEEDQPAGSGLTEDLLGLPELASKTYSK

tubulin = molecular target: T2, tubulin (Sus scrofa (brain tubulin, assumed from …, UniProt P02550;P02554))
T2 construct: tubulin alpha chain; Cytoskeleton T240-A; tubulin beta chain; As I recall, this catalogue item is tubulin purified from porcine brain (a mix of isotypes); source: bought: Cytoskeleton, Inc (T240-A)
T2 sequence (P02554 whole entry, looked up, chain 1 of 2): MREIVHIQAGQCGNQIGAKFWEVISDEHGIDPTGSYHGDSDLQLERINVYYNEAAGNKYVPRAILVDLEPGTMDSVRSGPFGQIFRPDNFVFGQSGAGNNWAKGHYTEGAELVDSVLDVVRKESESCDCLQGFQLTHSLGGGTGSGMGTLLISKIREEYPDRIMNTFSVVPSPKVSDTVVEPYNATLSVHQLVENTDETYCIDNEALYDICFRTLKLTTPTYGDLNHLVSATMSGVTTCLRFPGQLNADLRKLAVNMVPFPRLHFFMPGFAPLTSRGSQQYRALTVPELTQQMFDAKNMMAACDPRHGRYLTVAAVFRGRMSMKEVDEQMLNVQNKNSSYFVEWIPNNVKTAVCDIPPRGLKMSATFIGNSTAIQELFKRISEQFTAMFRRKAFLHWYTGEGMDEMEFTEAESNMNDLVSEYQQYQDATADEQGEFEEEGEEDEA
T2 sequence (P02550 whole entry, looked up, chain 2 of 2): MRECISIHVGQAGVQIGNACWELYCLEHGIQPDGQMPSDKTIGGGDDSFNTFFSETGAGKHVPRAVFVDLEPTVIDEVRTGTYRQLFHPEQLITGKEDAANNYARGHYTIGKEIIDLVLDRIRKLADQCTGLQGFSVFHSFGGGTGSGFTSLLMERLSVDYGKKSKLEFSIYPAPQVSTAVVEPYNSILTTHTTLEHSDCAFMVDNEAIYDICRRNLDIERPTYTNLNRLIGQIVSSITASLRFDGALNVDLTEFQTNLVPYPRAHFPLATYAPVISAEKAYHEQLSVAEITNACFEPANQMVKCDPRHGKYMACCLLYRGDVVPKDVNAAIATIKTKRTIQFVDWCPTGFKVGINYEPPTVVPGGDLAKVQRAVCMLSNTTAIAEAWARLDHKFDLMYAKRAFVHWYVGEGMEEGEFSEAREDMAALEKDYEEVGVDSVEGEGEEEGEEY

actin = actin (Bos taurus (muscle actin, assumed from …, UniProt P68138))

Measured: binding result

B1: single-chain Fv antibody fragment 18B7 (scFv, V domains shown)
VH: DVKLVESGGGLVKLGGSLKLSCVASGFTCSSYFMSWVRQTPEKRLELVAMINNNGDKTYYPDTVKGRFTISRDNAKNTLYLQMSSLKSEDTAMYYCARRDGTFGNHFDYWGQGTTLTVSS
VL: DVVMTQTPLSLPVSAGDQASISCRSSQSLCHSNGNTYLHWYLQKPGQSPKLLIYKVSNRFSGVPDKFSGSGSGTDFTLKISRVEAEDLGVYFCSQSTHVPWTFGGGTKLEIK
notes: VL of mAb 18B7; 15-residue linker, printed as (GGS)5 in the methods; the results call it (Gly4Ser)3; VH of mAb 18B7; A pelB leader was appended to the N-terminus; The tandem FLAG and His6 tags are at the C-terminus; also called scFv 18B7; scFv; source: E. coli BL21 STAR (pET22b+); also soluble in the periplasm; not shown: His6, C-terminal, kept
binds: all assays above
